We go through three molecules from paper PMC10397247.

What all share (test): two-hybrid library CCNG1;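 note: natural log of median RNA to DNA barcode read ratio; higher means stronger binding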
One assay addresses T1, 4H2717-bH.
T1 chain: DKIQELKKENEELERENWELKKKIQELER

For a further assay, the target named is T2, 4H2839-bH.
T2 chain: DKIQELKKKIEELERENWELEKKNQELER

The target of the next assay is T3, 4H2915-bH.
T3 chain: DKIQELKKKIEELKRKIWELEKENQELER

For the next assay, the target named is T4, 4H3057-bH.
T4 chain: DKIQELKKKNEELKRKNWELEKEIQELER

The next assay concerns the target T5, 4H319-bH.
T5 chain: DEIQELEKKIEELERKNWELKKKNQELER

The next assay addresses T6, 4H3277-bH.
T6 chain: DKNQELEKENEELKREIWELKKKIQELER

For another assay, the target named is T7, 4H348-bH.
T7 chain: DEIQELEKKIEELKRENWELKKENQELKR

A further assay concerns the target T8, 4H40-bH.
T8 chain: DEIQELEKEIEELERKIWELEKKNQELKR

The target of another assay is T9, 4H477-bH.
T9 chain: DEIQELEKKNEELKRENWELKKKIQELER

A further assay addresses T10, 4H492-bH.
T10 chain: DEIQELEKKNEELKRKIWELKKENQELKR

In the next assay the target is T11, 4H741-bH.
T11 chain: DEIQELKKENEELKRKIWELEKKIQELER

For another assay, the target named is T12, 4H3298-bH.
T12 chain: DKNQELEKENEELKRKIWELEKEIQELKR

The target in a further assay is T13, 4H3462-bH.
T13 chain: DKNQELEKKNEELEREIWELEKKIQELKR

The next assay has as its target T14, 4H3497-bH.
T14 chain: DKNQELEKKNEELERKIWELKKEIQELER

The next assay addresses T15, 4H3613-bH.
T15 chain: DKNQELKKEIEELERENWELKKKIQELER

The next assay has as its target T16, 4H3628-bH.
T16 chain: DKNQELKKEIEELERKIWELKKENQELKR

The next assay has as its target T17, 4H3926-bH.
T17 chain: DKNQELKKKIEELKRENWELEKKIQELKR

A further assay deals with T18, 4H575-bA.
T18 chain: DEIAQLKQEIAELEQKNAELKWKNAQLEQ

A further assay concerns the target T19, 4H591-bH.
T19 chain: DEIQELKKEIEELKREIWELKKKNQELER

In another assay the target is T20, 4H626-bH.
T20 chain: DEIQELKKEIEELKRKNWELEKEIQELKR

For another assay, the target named is T21, 4H906-bH.
T21 chain: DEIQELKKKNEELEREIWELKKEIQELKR

Regarding DKIQELKKENEELERENWELKKKIQELER [4H2717-bH], the interaction score with 4H2717-bH is 1.16; in the assay with 4H2839-bH, -0.51; with 4H2915-bH it was -0.399; with 4H3057-bH, -0.185; in the assay with 4H319-bH, -0.701; with 4H3277-bH, -0.479. In addition, the interaction score was -0.364 in the assay with 4H348-bH; -0.815 with 4H40-bH; 1.38 in the assay with 4H477-bH; -0.752 with 4H492-bH; -1.79 in the assay with 4H741-bH.
In the case of DKNQELEKENEELKRKIWELEKEIQELKR [4H3298-bH], the interaction score in the assay with 4H3298-bH is 1.66; with 4H3462-bH, 0.573; with 4H3497-bH it was -0.424; with 4H3613-bH, -1.68; with 4H3628-bH, 0.519; with 4H3926-bH, -0.215. Moreover, the interaction score in the assay with 4H575-bA was -1.29; with 4H591-bH, -1.21; with 4H626-bH, -0.173; in the assay with 4H906-bH, -0.397.
For the molecule DKNQELEKENEELKREIWELKKKIQELER [4H3277-bH], the interaction score was 1.3 in the assay with 4H3277-bH; -0.709 with 4H3298-bH; 0.203 in the assay with 4H3462-bH; 0.219 with 4H348-bH; -0.711 in the assay with 4H3497-bH; -0.0624 in the assay with 4H3613-bH. For the same molecule, the interaction score was -1.48 with 4H3628-bH; -0.167 with 4H3926-bH; 0.141 in the assay with 4H40-bH; 0.256 with 4H477-bH; -0.305 with 4H492-bH; 0.0179 in the assay with 4H591-bH. The interaction score was -1.06 in the assay with 4H626-bH, -2.8 in the assay with 4H741-bH and -0.423 in the assay with 4H906-bH.
